Measurements reported in article doi:10.1101/2021.10.05.463238 (bioRxiv, 2021).
Blank lines part the entries; values can stand above or below the binder they belong to.

What was measured:
[1] = biological target: taxol-stabilized microtubules of unlabeled porcine brain tubulin (porcine) (UniProt P02550); assay: co-sedimentation
native gel or EMSA = biological target: the molecule itself; assay: native gel or EMSA

Kd [1]: 1.3 µM
B1: SPR2(1-570)-GFP (domain or fragment, Arabidopsis thaliana, UniProt Q9T041 1-570, looked up)
chain: MSTPTTSGSAAKPTRPARSSSLATRSCSNSGSLTSFQAMVELKQKILTSISKLADRDTYQIAVEDLEKTIQSLTPETLPMFLNCLYDSCSDPKPAVKKECLHLLSYVCSLHCDSTAAHLTKIIAQIVKRLKDSDSGVRDACRDTIGALSGIYLKGKEEGTNTGSASLAVGLFVKPLFEAMGEQNKVVQSGASMCMARMVESAASPPVTSFQKLCPRICKLLSNSSFLAKASLLPVVSSLSQVGAIAPQSLESLLESIHDCLGSTDWVTRKAAAETLTALASHSSGLIKEKTDSTITVLETCRFDKIKPVRESVTEALQLWKKISGKYVDGASDDSKLSASEQLGSEKNGEKRSNLADLMKKEASDGSTLSPDSASKGKGCFPEKAVGLLKKKAPVLSDKDFNPEFFQRLERRQSVEVVVPRRCKNNDEEESGLDDLNAMGSSNRLKNTQADDKQVKGRFDGNGSQARTSGDDKAGVVNGKETPGHHAPVSNTDNQSEGSFTSNRGNWSAIQRQLLQLERQQTNLMNMLQEFIGGSHDSMVTLEGRVRGLERIVEDMARDLSISSGRRANL
binding result (native gel or EMSA): binds

B2: SPR2 (38-570)-GFP (domain or fragment, Arabidopsis thaliana, UniProt Q9T041 38-570, looked up)
chain: AMVELKQKILTSISKLADRDTYQIAVEDLEKTIQSLTPETLPMFLNCLYDSCSDPKPAVKKECLHLLSYVCSLHCDSTAAHLTKIIAQIVKRLKDSDSGVRDACRDTIGALSGIYLKGKEEGTNTGSASLAVGLFVKPLFEAMGEQNKVVQSGASMCMARMVESAASPPVTSFQKLCPRICKLLSNSSFLAKASLLPVVSSLSQVGAIAPQSLESLLESIHDCLGSTDWVTRKAAAETLTALASHSSGLIKEKTDSTITVLETCRFDKIKPVRESVTEALQLWKKISGKYVDGASDDSKLSASEQLGSEKNGEKRSNLADLMKKEASDGSTLSPDSASKGKGCFPEKAVGLLKKKAPVLSDKDFNPEFFQRLERRQSVEVVVPRRCKNNDEEESGLDDLNAMGSSNRLKNTQADDKQVKGRFDGNGSQARTSGDDKAGVVNGKETPGHHAPVSNTDNQSEGSFTSNRGNWSAIQRQLLQLERQQTNLMNMLQEFIGGSHDSMVTLEGRVRGLERIVEDMARDLSISSGRRANL
binding result (native gel or EMSA): binds

B3: full-length SPR2-GFP protein (natural protein, Arabidopsis thaliana, UniProt Q9T041 1-864, looked up)
chain: MSTPTTSGSAAKPTRPARSSSLATRSCSNSGSLTSFQAMVELKQKILTSISKLADRDTYQIAVEDLEKTIQSLTPETLPMFLNCLYDSCSDPKPAVKKECLHLLSYVCSLHCDSTAAHLTKIIAQIVKRLKDSDSGVRDACRDTIGALSGIYLKGKEEGTNTGSASLAVGLFVKPLFEAMGEQNKVVQSGASMCMARMVESAASPPVTSFQKLCPRICKLLSNSSFLAKASLLPVVSSLSQVGAIAPQSLESLLESIHDCLGSTDWVTRKAAAETLTALASHSSGLIKEKTDSTITVLETCRFDKIKPVRESVTEALQLWKKISGKYVDGASDDSKLSASEQLGSEKNGEKRSNLADLMKKEASDGSTLSPDSASKGKGCFPEKAVGLLKKKAPVLSDKDFNPEFFQRLERRQSVEVVVPRRCKNNDEEESGLDDLNAMGSSNRLKNTQADDKQVKGRFDGNGSQARTSGDDKAGVVNGKETPGHHAPVSNTDNQSEGSFTSNRGNWSAIQRQLLQLERQQTNLMNMLQEFIGGSHDSMVTLEGRVRGLERIVEDMARDLSISSGRRANLTAGFGKYNSFANYPTGKYNGRAPGERGSQTDGAMRGRMWNSDMADDWFIPPHAASRNGQAGPRRSPRSEQYENEHMGNGRRGWDNKASGTIRFGEGPSARSVWQASKDEATLEAIRVAGEDGAVPRPTRVAVAPEAEAMGDDDNEGQERDPIWVSWSNAMHSLRVGDIDAAYAEVLCAGDQHLVIKLMDKTGPSLDQMSNEIANEALNFISQFLLDHSLYDICLSWSQQLLELVLQDGADTFGVPMELKTEILYNLQDACSTMDPPEDWEGPAPEQLVVQLASVWEIDLQQFDK
binding result (native gel or EMSA): binds

Kd [1]: 17.4 µM
B4: SPR2(1-500)-GFP (domain or fragment)
chain: MSTPTTSGSAAKPTRPARSSSLATRSCSNSGSLTSFQAMVELKQKILTSISKLADRDTYQIAVEDLEKTIQSLTPETLPMFLNCLYDSCSDPKPAVKKECLHLLSYVCSLHCDSTAAHLTKIIAQIVKRLKDSDSGVRDACRDTIGALSGIYLKGKEEGTNTGSASLAVGLFVKPLFEAMGEQNKVVQSGASMCMARMVESAASPPVTSFQKLCPRICKLLSNSSFLAKASLLPVVSSLSQVGAIAPQSLESLLESIHDCLGSTDWVTRKAAAETLTALASHSSGLIKEKTDSTITVLETCRFDKIKPVRESVTEALQLWKKISGKYVDGASDDSKLSASEQLGSEKNGEKRSNLADLMKKEASDGSTLSPDSASKGKGCFPEKAVGLLKKKAPVLSDKDFNPEFFQRLERRQSVEVVVPRRCKNNDEEESGLDDLNAMGSSNRLKNTQADDKQVKGRFDGNGSQARTSGDDKAGVVNGKETPGHHAPVSNTDNQSEGSF
